Assays:
[1] = biological target: human Hepatocyte Growth Factor (HGF) (human) (UniProt P14210); assay: competition with ^3H-Hinge for soluble HGF
[2] = biological target: human Hepatocyte Growth Factor (HGF) (human) (UniProt P14210); assay: competition with ^3H-Hinge for soluble HGF (1.25 ng), Bio-Gel P6 spin columns, scintillation counting
[3] = biological target: Hepatocyte Growth Factor (HGF), species not stated (Homo sapiens (Human)) (UniProt P14210); assay: ^3H Dihexa binding to HGF (FIG. 43), repeated in the text
[4] = biological target: Hepatocyte Growth Factor (HGF), species not stated (Homo sapiens (Human)) (UniProt P14210); assay: ^3H Dihexa incubated with different concentrations of HGF, Biogel P6 columns, scintillation counting

Chain of human Hepatocyte Growth Factor (HGF) (human) (P14210 32-728 limits assumed): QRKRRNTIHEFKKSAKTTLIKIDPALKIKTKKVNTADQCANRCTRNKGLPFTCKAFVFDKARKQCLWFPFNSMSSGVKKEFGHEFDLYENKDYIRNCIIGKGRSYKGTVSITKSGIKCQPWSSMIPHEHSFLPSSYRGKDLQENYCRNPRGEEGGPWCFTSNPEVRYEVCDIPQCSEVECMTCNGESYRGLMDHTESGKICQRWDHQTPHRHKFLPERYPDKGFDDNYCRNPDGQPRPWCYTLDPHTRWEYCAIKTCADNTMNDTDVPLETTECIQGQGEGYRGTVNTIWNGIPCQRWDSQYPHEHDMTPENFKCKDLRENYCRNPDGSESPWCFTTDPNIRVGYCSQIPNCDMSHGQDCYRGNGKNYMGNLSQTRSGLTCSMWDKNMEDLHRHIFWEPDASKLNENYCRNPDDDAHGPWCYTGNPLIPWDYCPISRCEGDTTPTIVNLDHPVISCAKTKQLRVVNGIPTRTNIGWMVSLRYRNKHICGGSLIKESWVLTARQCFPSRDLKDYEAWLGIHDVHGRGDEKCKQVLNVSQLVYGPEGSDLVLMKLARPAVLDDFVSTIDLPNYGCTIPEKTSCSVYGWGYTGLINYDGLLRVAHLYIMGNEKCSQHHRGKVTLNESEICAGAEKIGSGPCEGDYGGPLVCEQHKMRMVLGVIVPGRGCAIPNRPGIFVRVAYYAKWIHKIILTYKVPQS
Chain of Hepatocyte Growth Factor (HGF), species not stated (Homo sapiens (Human)) (P14210 32-494 limits assumed, form in doubt, chain 1 of 2): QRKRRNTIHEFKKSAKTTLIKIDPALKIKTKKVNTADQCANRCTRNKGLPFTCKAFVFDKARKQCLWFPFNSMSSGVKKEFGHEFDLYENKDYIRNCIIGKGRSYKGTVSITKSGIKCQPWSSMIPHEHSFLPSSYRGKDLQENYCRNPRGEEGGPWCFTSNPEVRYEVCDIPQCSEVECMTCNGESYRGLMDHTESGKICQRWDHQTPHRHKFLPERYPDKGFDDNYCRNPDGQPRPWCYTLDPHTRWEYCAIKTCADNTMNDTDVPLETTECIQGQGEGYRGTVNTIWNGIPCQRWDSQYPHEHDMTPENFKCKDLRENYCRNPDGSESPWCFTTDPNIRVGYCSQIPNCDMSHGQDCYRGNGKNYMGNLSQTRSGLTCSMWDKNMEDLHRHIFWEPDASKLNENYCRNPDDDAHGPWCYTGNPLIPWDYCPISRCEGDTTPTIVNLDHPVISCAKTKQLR
Chain of Hepatocyte Growth Factor (HGF), species not stated (Homo sapiens (Human)) (P14210 495-728 limits assumed, form in doubt, chain 2 of 2): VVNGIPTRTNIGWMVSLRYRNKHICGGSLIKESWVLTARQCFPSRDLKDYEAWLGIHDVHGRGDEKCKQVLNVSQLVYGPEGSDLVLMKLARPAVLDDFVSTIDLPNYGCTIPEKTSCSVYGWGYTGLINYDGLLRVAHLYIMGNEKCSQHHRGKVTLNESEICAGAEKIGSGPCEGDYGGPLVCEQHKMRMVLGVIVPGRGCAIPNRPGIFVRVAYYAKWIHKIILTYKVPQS

| Ki [1] [nM] | Ki [2] [nM] | Kd [3] [nM] | Kd [4] [nM] | Substance |
| --- | --- | --- | --- | --- |
| 0.133 | 0.133 | – | – | D-Nle-Cys-Ile-NH-(CH2)5-CONH2 (peptide) |
| 137 | 138 | – | – | D-Nle-Met-Ile-NH-(CH2)5-CONH2 (peptide) |
| – | 3.37 | – | – | D-Nle-Trp-Ile-NH-(CH2)5-CONH2 (peptide) |
| – | – | 0.00022 | 0.000221 | Dihexa (N-hexanoic-Tyr-Ile-(6)-aminohexanoic amide) (peptide) |
